{"source": "patent US6001823A", "about": "“Treatment or prophylaxis of diseases caused by pilus-forming bacteria” (priority 1995, dated 1999)", "key": {"[1]": {"molecular_target": "T1, PapD-PapG complex (Escherichia coli, UniProt P15319)", "T1 construct": "made in house", "T1 sequence (P15319 22-239)": "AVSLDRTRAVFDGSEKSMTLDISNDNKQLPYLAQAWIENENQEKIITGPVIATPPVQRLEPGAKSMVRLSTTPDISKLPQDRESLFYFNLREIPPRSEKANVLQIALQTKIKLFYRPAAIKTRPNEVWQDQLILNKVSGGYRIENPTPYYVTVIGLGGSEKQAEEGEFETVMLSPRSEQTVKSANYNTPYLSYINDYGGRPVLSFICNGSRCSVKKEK", "test": "Reconstitution assay: restoration of PapD-PapG complex from reduced, denatured PapG", "assay_type": "biochemical, E. coli", "conditions": "PapD incubated with increasing amounts of peptide", "method": "B: PapD incubated with the G1'-19'WT, G1'-16'WT, K1'-19'WT, and G2'-21'amide was added to reduced, denatured PapD-PapG and the amount of PapD-PapG complex restored in each sample was quantitated as described in example 2. The % inhibition represents the amount of the PapD-PapG complex restored with peptide-treated PapD compared to the amount of PapD-PapG complex restored with untreated PapD. The graph represent the average of 4 experiments. PapD and PapD-PapG complex were prepared as described in F. Lindberg et al, J. Bacteriol. 171, 6052 (1989) and S. J. Hultgren et al., Proc. Natl. Acad. Sci. U.S.A. 86, 4357 (1989).\nFIG. 7: Ability of PapD Arg-8, Lys-112 and Thr-7 mutants to bind PapG and restore the PapD-PapG complex in vitro. 0.4 μg of PapD-PapG complex was reduced and denatured as described in FIG. 2B. The denatured PapD-PapG complex was then diluted with 0-630 ng purified wild type (WT) or mutant PapD. The amount of PapD-PapG restored in the samples was determined as in FIG. 2B and was graphed as a percentage of the greatest amount of PapD-PapG restored. The values graphed represent the average of 3 experiments. Wild type and mutant PapD and the PapD-PapG complex were purified as described in F. Lindberg et al, J. Bacteriol. 171, 6052 (1989) and S. J. Hultgren et al., Proc. Natl. Acad. Sci. U.S.A. 86, 4357 (1989).\nAs described in Kuehn et al., Proc. Natl. Acad. Sci. U.S.A. 88, 10586 (1991), native PapD is able to bind to reduced, denatured PapG and restore the PapD-PapG complex in vitro. This reconstitution assay was used to determine the ability of the peptides to inhibit PapD activity in vitro.\nThe PapD-peptide solution was then added to the reduced, denatured PapD-PapG, incubated at 25° C. for 10 min, and applied to an IEF 3-9 gel (Pharmacia). The amount of PapD-PapG restored in each sample was quantitated by densitometry of the silver stained IEF band corresponding to the pI of the DG complex."}, "[2]": {"molecular_target": "T2, PapD (Escherichia coli, UniProt P15319)", "T2 sequence (P15319 22-239)": "T1 sequence (P15319 22-239)", "test": "ELISA: peptide inhibition of PapD binding to MBP-G1'-140' fusion protein", "parameters": "species or system E. coli", "conditions": "PapD preincubated with peptide at 1:25 ratio", "method": "The ability of the peptides to inhibit the binding of PapD to the MBP-G1'-140' fusion protein was then investigated using the following ELISA test:\nStock solutions of MBP-G1'-140' proteins in PBS were diluted to 0.1 μM with PBS. The wells of microtiter plates were coated with 50 μl of the protein solutions overnight at 4° C. The wells were washed with PBS, and blocked with 200 μl of 3% bovine serum albumin (BSA) in PBS for 2 hours at 25° C. The plates were washed vigorously three times with PBS and incubated with 50 μl of 1-5 μM PapD proteins in 3% BSA-PBS for 45 minutes at 25° C. The PapD was preincubated with each of the peptides at a 1:25 ratio for 30 min before being added to the wells. After three washings with PBS, the wells were incubated with a 1:500 dilution of rabbit anti-PapD antiserum in 3% BSA-PBS for 45 minutes at 25° C. After three washings with PBS, the wells were incubated with a 1:1000 dilution of goat antiserum to rabbit IgG coupled to alkaline phosphatase in 3% BSA-PBS for 45 minutes at 25° C. After three washings with PBS and three washings with developing buffer (10 mM diethanolamine, 0.5 mM MgCl2), 50 μl filtered 1 mg/ml p-nitrophenyl phosphate in developing buffer was added, the reaction was incubated for 1 hour or longer if necessary in the dark at 25° C., and the absorbance at 405 nm was read."}, "[3]": {"molecular_target": "T2, PapD", "test": "Protection of PapD against tryptic cleavage by peptides", "assay_type": "biochemical, E. coli", "parameters": "made in house", "conditions": "PapD preincubated with 20-fold molar excess of peptide", "method": "A Lower: The rate of trypsin cleavage of PapD decreased upon preincubation with the G1'-19'WT, G1'-16'WT or K1'-19'WT peptides, but the G2'-21'amide peptide had no effect. 50 μg of purified PapD was preincubated for 15 min at 25° C. with a 20-fold molar excess of G1'-19'WT, G1'-16'WT, K1'-19'WT or G2'-21'amide peptides (any trypsin cleavage sites in these peptides occur at their amino termini where they were predicted not to interfere with PapD), or an equivalent volume of water. Each sample was then incubated at 37° C. with 3.2 μg of trypsin. Aliquots were removed after 0, 5, 10, 20, 30 and 40 min and boiled in SDS-PAGE sample buffer to stop the digestion. The samples were applied to 15% SDS-PAGE gels and the amount of full-length PapD remaining was determined by densitometry of Coomassie blue stained bands corresponding to full-length PapD which are shown.\n400 μg of PapD was partially digested by incubation with either 4,5 μg trypsin or 0.45 μg chymotrypsin on PBS for 20 min. at 37° C. The PapD digests were applied to a C-18 HPLC column (Beckman) and 2 major fragments were eluted with a 0-100% acetonitrile gradient in 0.01% trifluoroacetic acid. The PapD fragments were identified by their molecular weight on SDS-PAGE and amino-terminal sequencing. The N-terminal amino acid sequences of the approximately 14 kDa tryptic and chymotryptic fragments were identified as residues 100-108 and 104-109 of PapD, respectively, corresponding to cleavage after Lys-99 (for trypsin) and Leu-103 (for chymotrypsin). The N-terminal sequences of the 11 and 12 kDa bands in the digests were identical to the N-terminal sequence of PapD."}}, "note": "Entries after “also recorded” stand apart in the source; their conditions may differ.", "data": [{"substance": "NH2--KPGELSGSMTMVLSFP--COOH (H-KPGELSGSMTMVLSFP-OH) [G1'-16'WT]", "values": [{"measurement": "inhibition of restoration of the PapD-PapG complex by PapD", "setting": "[1]", "result": "inhibit restoration"}, {"measurement": "inhibition of binding of PapD to MBP-G1'-140' fusion protein", "setting": "[2]", "result": "significantly more potent"}, {"measurement": "rate of tryptic cleavage of PapD", "setting": "[3]", "result": "decreased; also recorded: reduced the rate of tryptic cleavage"}]}]}
